We go through 18 sequences from the supplement of paper PMC12764529.

Data set [1] in a line: folding stability dG unfold from trypsin proteolysis; higher = more stable. In short, it runs like this:
(§1)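 Mini-proteins designed to be under 80 residues and free of cysteine were carried in a PA-tagged cDNA display construct and digested with trypsin and with chymotrypsin. Each protease was applied at 11 threefold-diluted concentrations, alongside a no-protease condition, before sequencing. K50 came from Bayesian fitting of the sequencing counts, and unfolding free energy was obtained by comparing it with a sequence-predicted unfolded-state K50 and a shared folded-state K50, for each protease separately or for both together. Designs were retained only if their AlphaFold2 dimer inter-PAE exceeded 15.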

The nature of data set [2]: folding stability dG unfold (combined trypsin and chymotrypsin); higher = more stable. In short, it runs like this:
as §1

The nature of data set [3]: folding stability dG unfold from chymotrypsin proteolysis; higher = more stable. In short, it runs like this:
as §1

± gives the half width of the 95% confidence interval.

Take “SAGGATPLPDGGYRLTYTVKLSPSESVEDAPKAAAALAEKYGVTPVAITVDPSTGTVTIDILLPPEVRSAGG [r13_178_JUSTAS]”: the “folding stability dG unfold” value turned out to be 1.01 ± 0.046 kcal/mol in data set [1], 1.44 ± 0.095 kcal/mol in data set [2] and 1.68 ± 0.11 kcal/mol in data set [3].

Turning to “SAGGAVEVKEIKILPPVLDPEGDPSNPLLRVEITTKITENTPEGKKILEKTKTYLVSPENLEEVLKKLSAGG [r13_149_JUSTAS]”, the results for the “folding stability dG unfold” value in data set [1], in data set [2] and in data set [3] were 2.05 ± 0.065 kcal/mol, 2.18 ± 0.13 kcal/mol and 1.98 ± 0.07 kcal/mol, respectively.

Turning to “SAGGAVVTPETEGDRTFVTTTDPESGSRTVTVTTYDPTTNTATTTTYFVPPDGVPTRVATTTTPLPPTSAGG [r13_768_JUSTAS]”, the “folding stability dG unfold” value turned out to be 1.2 ± 0.077 kcal/mol in data set [1], 1.44 ± 0.13 kcal/mol in data set [2] and 1.49 ± 0.097 kcal/mol in data set [3].

With “SAGGDEDDWRPIEIPLYIRNPENGHLFQITPMKIWVPDNLTIEMEMEMFDPDDGKVEKHKMTFTIPAKSAGG [r13_206_TrROS]”, the entries for the “folding stability dG unfold” value in data set [1], in data set [2] and in data set [3] were 1.2 ± 0.088 kcal/mol, 1.64 ± 0.22 kcal/mol and 2.09 ± 0.21 kcal/mol, respectively.

As for “SAGGDEDKPKPKIEPKKEIEIVLPYPEDEVTPEELKARIEEETGEKITEIEVTRIPNSNEYKVKFTVESAGG [r13_457_JUSTAS]”, the entries for the “folding stability dG unfold” value in data set [1], in data set [2] and in data set [3] were 0.227 ± 0.04 kcal/mol, 0.577 ± 0.13 kcal/mol and 0.68 ± 0.15 kcal/mol, respectively.

Take “SAGGDFKPPVPTTQVLTFTIETSPEDPEKAKEIAEKLKKELLEKGAVKIEVTLDPEPGTVTVTVTLVKLSAG [r5_512_JUSTAS]”: the “folding stability dG unfold” value in data set [1] was 1.95 ± 0.069 kcal/mol; in data set [2], 2.51 ± 0.19 kcal/mol; in data set [3], 2.92 ± 0.063 kcal/mol.

Consider “SAGGDIKFEIGLELLPDGILVIRGSVEVRMGGQSVTYEFIIIVKIKPIPPPPPPPKPKYNPEDGKWKSAGGS [r8_269_TrROS]”, for which the “folding stability dG unfold” value in data set [1] is 2.32 ± 0.076 kcal/mol; in data set [2], 2.58 ± 0.22 kcal/mol; in data set [3], 2.89 ± 0.11 kcal/mol.

Regarding “SAGGDKKKVKIHIFPPPGMPMDNFANYIQDQLGWDRNNIKVEPMDSPQEAERRAEKNGKPEIVIFFRSAGGS [r8_245_TrROS]”, the “folding stability dG unfold” value was -0.216 ± 0.31 kcal/mol in data set [1], 0.456 ± 0.32 kcal/mol in data set [2] and 1.02 ± 0.54 kcal/mol in data set [3].

For the sequence “SAGGDKLEDLPLEDVEVLRVEVIPLPDGGVLVVFEFKVSDEEGPERLVRVVVLVENDEARVFVEPLGSAGGS [r16_469_TrMRF]”, the “folding stability dG unfold” value in data set [1] was determined as 2.05 ± 0.085 kcal/mol; in data set [2], 2.91 ± 0.13 kcal/mol; in data set [3] it was 3.2 ± 0.081 kcal/mol.

For “SAGGDMWMIKVEHPNGRPFQIMINPNKPEISIQFNDGETRTFPIPKDYTIEDLAKELPPGYKVEIHPMSAGG [r13_696_TrROS]”, the “folding stability dG unfold” value in data set [1] came to 2.25 ± 0.1 kcal/mol; in data set [2] it was 2.4 ± 0.17 kcal/mol; in data set [3] it was 2.46 ± 0.051 kcal/mol.

“SAGGDNIDVERHPHPNNMYMFSITIPPDYPLKIRYPNGPKHEIPIPDPNATIHFMFPPDEPIEIEIYPSAGG [r13_82_TrROS]”: the “folding stability dG unfold” value was 1.12 ± 0.019 kcal/mol in data set [1], 1.2 ± 0.083 kcal/mol in data set [2] and 1.25 ± 0.12 kcal/mol in data set [3].

Take “SAGGDPDGKPKIEIKIKDINVEPDPDNGYYRATIKIRFPNGREINFDIPMPPGQTAEQVKEQAREMIQSAGG [r13_578_TrROS]”: the entries for the “folding stability dG unfold” value in data set [1], in data set [2] and in data set [3] were 1.77 ± 0.025 kcal/mol, 1.45 ± 0.17 kcal/mol and 1.24 ± 0.095 kcal/mol, respectively.

As to “SAGGDPGKPTSVTLTLTVPKDKKTVKLEVTFNPETGEAVITFPGSSKTVTLPFGSLPDVLDAAKKLLYSAGG [r13_439_TrMRF]”, the results for the “folding stability dG unfold” value in data set [1], in data set [2] and in data set [3] were 2.31 ± 0.063 kcal/mol, 2.49 ± 0.07 kcal/mol and 2.65 ± 0.035 kcal/mol, respectively.

For “SAGGDPLVLEFDGVTVVYDPKTKTLVVFAPSSEVERLVKALGPKFEPLEIFELEDGSVVMLVRIKPESAGGS [r8_415_TrMRF]”, the “folding stability dG unfold” value stood at 3.53 ± 0.12 kcal/mol in data set [1], 4.35 ± 0.13 kcal/mol in data set [2] and 4.53 ± 0.1 kcal/mol in data set [3].

For “SAGGDPNGKWVTINIPIWIPGPPEQAEMIAESIMEELGFEITDVKVEPHPDDPNWVRIDITLTFRKKSAGGS [r8_479_TrROS]”, the “folding stability dG unfold” value in data set [1] was found to be 2.74 ± 0.097 kcal/mol; in data set [2] it was 2.83 ± 0.18 kcal/mol; in data set [3], 3.03 ± 0.044 kcal/mol.

Turning to “SAGGDPPNIEVVPYRVKFGGKPIPIQVFVMPNGQTIVRIKFPNGKKGWMPADDLDELLKNPFEIERVSAGGS [r16_105_TrROS]”, the “folding stability dG unfold” value in data set [1] is 1.21 ± 0.023 kcal/mol; in data set [2] it was 1.11 ± 0.14 kcal/mol; in data set [3], 0.998 ± 0.14 kcal/mol.

As for “SAGGDPVRIFIMSGNGIFPIEIPLDPGEKVEFEMKFNGQEVTITITPGDGEIEIEMPPGFNIMALEPSAGGS [r16_761_TrROS]”, the results for the “folding stability dG unfold” value in data set [1], in data set [2] and in data set [3] were 1.59 ± 0.086 kcal/mol, 1.89 ± 0.11 kcal/mol and 2.05 ± 0.038 kcal/mol, respectively.

“SAGGDVTISIMIFVWPGWTEEQYKEMAKEVAKTIARQLAQKNPDLNENIDIEDIEVTIIPMEGDPDYFSAGG [r13_128_TrROS]”: the “folding stability dG unfold” value in data set [1] amounted to 1.91 ± 0.049 kcal/mol; in data set [2] it was 1.68 ± 0.19 kcal/mol; in data set [3], 1.35 ± 0.1 kcal/mol.
